Assays:
[1] = target: T1, GST-Fob1 (prep also contains free Fob1) (Saccharomyces cerevisiae) (UniProt O13329); experiment: competition; details: 10 mM Tris pH 7.5, 1 mM EDTA, 0.1 M KCl, 0.1 mM DTT, 5% glycerol, 20 ul, 30 C 30 min; 6% PAGE in 0.5X TBE
T1 sequence: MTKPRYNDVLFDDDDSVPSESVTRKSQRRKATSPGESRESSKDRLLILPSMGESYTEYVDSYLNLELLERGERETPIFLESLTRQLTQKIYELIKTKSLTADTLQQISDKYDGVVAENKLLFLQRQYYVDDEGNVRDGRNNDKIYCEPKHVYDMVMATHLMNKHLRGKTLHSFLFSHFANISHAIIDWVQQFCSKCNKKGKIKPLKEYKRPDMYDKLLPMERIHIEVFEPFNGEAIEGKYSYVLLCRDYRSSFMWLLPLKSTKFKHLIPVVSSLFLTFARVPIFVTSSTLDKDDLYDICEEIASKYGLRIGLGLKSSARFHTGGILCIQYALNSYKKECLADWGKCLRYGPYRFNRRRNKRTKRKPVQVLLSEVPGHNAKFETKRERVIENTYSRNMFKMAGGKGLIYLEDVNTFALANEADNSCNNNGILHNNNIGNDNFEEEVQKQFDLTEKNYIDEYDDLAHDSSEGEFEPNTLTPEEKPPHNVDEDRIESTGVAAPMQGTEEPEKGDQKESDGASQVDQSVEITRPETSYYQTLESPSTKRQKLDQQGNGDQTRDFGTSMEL

[2] = target: T1, GST-Fob1 (prep also contains free Fob1) (Saccharomyces cerevisiae); experiment: EMSA; details: 10 mM Tris pH 7.5, 1 mM EDTA, 0.1 M KCl, 0.1 mM DTT, 5% glycerol, 20 ul, 30 C 30 min; 6% PAGE in 0.5X TBE

TGCTAGTGTTTGCAAGATGGTGCTTTTTTTTCTTTAGATTGCCACGTTTCTGCTCCT (double strand) [RDT1 promoter probe (57 bp)]
binding [1]: binds | binding [2]: binds
